In the RNAGym collection of RNA variant scans (doi:10.1073/pnas.2313332121):
Fewer inactive variants are shown than the library holds.

B1: TPR 5TU (parent)
chain: GGAUCUUCUCGAUCUAACAAAAAAGACAAAUCUGCCACAAAGCUUGAGAGCAUCUUCGGAUGCAGAGGCGGCAGCCUUCGGUGGCGCGAUAGCGCCAACGUUCUCAACUAUGACACGCAAAACGCGUGCUCCGUUGAAUGGAGUUUAUCAUG

Variants of: B1
Assay: polymerase ribozyme fitness, log enrichment relative to wild type (log ratio); higher = more active; in vitro selection for triplet polymerase activity
Summary of the method: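 Genotype fitness is the logarithm of its enrichment divided by wild-type enrichment, using inverse-variance-weighted averages of replicates. That logarithm is base 2. Enrichment was measured by Illumina sequencing of input and output libraries from one triplicate in vitro selection round, with frozen incubation at −7 °C, on PCR-built, transcribed mutant libraries of each subunit of a heterodimeric triplet polymerase ribozyme, retaining genotypes with ≥10 input reads and ≥1 read per output.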

**Q.** For A16U A17C U44C U56A C76U G88U C114A, which “polymerase ribozyme fitness (log ratio)” value is on record?
**A.** ≤ -4.2

**Q.** With A16U A40G U44A G71C C85A G141A G143U as the variant, how does the “polymerase ribozyme fitness (log ratio)” value read?
**A.** ≤ -4.2

**Q.** Which “polymerase ribozyme fitness (log ratio)” value does the source give for A16U A20C A91U G141U here?
**A.** ≤ -4.2

**Q.** For U15G A28U G46C C57U C85A G86U U90A C95U C105U, which “polymerase ribozyme fitness (log ratio)” value is on record?
**A.** ≤ -4.2

**Q.** With A16G C87U as the variant, how does the “polymerase ribozyme fitness (log ratio)” value read?
**A.** -1.85

**Q.** With U15G A47C G83C as the variant, how does the “polymerase ribozyme fitness (log ratio)” value read?
**A.** -1.85

**Q.** With U15G C18G G50C U53G G92A U148G as the variant, how does the “polymerase ribozyme fitness (log ratio)” value read?
**A.** ≤ -4.2

**Q.** With A16C A19U A73G C87A as the variant, how does the “polymerase ribozyme fitness (log ratio)” value read?
**A.** ≤ -4.2

**Q.** With A16C A20C A39U G42C C76A C95A as the variant, how does the “polymerase ribozyme fitness (log ratio)” value read?
**A.** ≤ -4.2

**Q.** Which “polymerase ribozyme fitness (log ratio)” value does the source give for A16G G83U G92A C96U here?
**A.** ≤ -4.2

**Q.** With A16U A19U as the variant, how does the “polymerase ribozyme fitness (log ratio)” value read?
**A.** -2.39

**Q.** Which “polymerase ribozyme fitness (log ratio)” value does the source give for A16C A17G C57U G86A G133U here?
**A.** ≤ -4.2

**Q.** Which “polymerase ribozyme fitness (log ratio)” value does the source give for A16G A20U C99U U102G here?
**A.** ≤ -4.2

**Q.** For A16G G48U G133U, which “polymerase ribozyme fitness (log ratio)” value is on record?
**A.** -3.99

**Q.** With A16G C43A U53C G70A A73G as the variant, how does the “polymerase ribozyme fitness (log ratio)” value read?
**A.** ≤ -4.2

**Q.** With A16C C87U G128U as the variant, how does the “polymerase ribozyme fitness (log ratio)” value read?
**A.** ≤ -4.2

**Q.** Which “polymerase ribozyme fitness (log ratio)” value does the source give for U15G A37U U55A U56C C87G C95U A106G G136A U145G here?
**A.** ≤ -4.2

**Q.** Which “polymerase ribozyme fitness (log ratio)” value does the source give for A16C U44A C69G C75G A91U C114G G117C here?
**A.** ≤ -4.2

**Q.** With A16G U82A U145G as the variant, how does the “polymerase ribozyme fitness (log ratio)” value read?
**A.** -1.4

**Q.** Which “polymerase ribozyme fitness (log ratio)” value does the source give for A16C U144G here?
**A.** -0.499

**Q.** Which “polymerase ribozyme fitness (log ratio)” value does the source give for U15G G50C C95A C99U A120U here?
**A.** ≤ -4.2

**Q.** Which “polymerase ribozyme fitness (log ratio)” value does the source give for A16G A30U C38A C96G A97C C105G A107U A110U here?
**A.** ≤ -4.2

**Q.** With A16C C57U C129U G143A as the variant, how does the “polymerase ribozyme fitness (log ratio)” value read?
**A.** -1.91

**Q.** Which “polymerase ribozyme fitness (log ratio)” value does the source give for U15G G84A C96A A119U here?
**A.** -2.08

**Q.** For A16G C54U C76A C93U A97G C103U C123U G128C, which “polymerase ribozyme fitness (log ratio)” value is on record?
**A.** ≤ -4.2

**Q.** For U15G U55G G71C C85U A142U C149U, which “polymerase ribozyme fitness (log ratio)” value is on record?
**A.** ≤ -4.2

**Q.** With A16U A30C A47G G58A U111A as the variant, how does the “polymerase ribozyme fitness (log ratio)” value read?
**A.** ≤ -4.2

**Q.** Which “polymerase ribozyme fitness (log ratio)” value does the source give for U15G A98G A122C G124U here?
**A.** -1.76

**Q.** For A16U A41G A47C C76G G88C G94C A110C U134A G140A G141C A147C, which “polymerase ribozyme fitness (log ratio)” value is on record?
**A.** ≤ -4.2

**Q.** Which “polymerase ribozyme fitness (log ratio)” value does the source give for A16G A20U C118U A137U here?
**A.** ≤ -4.2

**Q.** For A16U A29U U45G U61G C93A, which “polymerase ribozyme fitness (log ratio)” value is on record?
**A.** ≤ -4.2

**Q.** With U15G A28G C79A G124U as the variant, how does the “polymerase ribozyme fitness (log ratio)” value read?
**A.** ≤ -4.2

**Q.** Which “polymerase ribozyme fitness (log ratio)” value does the source give for A16C G34U C93U C105U G112A here?
**A.** ≤ -4.2

**Q.** With A16G U33G U90G C114U G117U A138C A150G as the variant, how does the “polymerase ribozyme fitness (log ratio)” value read?
**A.** ≤ -4.2

**Q.** Which “polymerase ribozyme fitness (log ratio)” value does the source give for U15G C93A U109C here?
**A.** ≤ -4.2

**Q.** With U15G C27U G84A as the variant, how does the “polymerase ribozyme fitness (log ratio)” value read?
**A.** -1.78

**Q.** Which “polymerase ribozyme fitness (log ratio)” value does the source give for A16C A20C C85A G141C here?
**A.** -2.3

**Q.** Which “polymerase ribozyme fitness (log ratio)” value does the source give for U15G C51A A52C C69U C85A here?
**A.** ≤ -4.2

**Q.** Which “polymerase ribozyme fitness (log ratio)” value does the source give for A16G A23C U55G G88A C108A U111C A122C here?
**A.** ≤ -4.2

**Q.** For A16C G112U A150U, which “polymerase ribozyme fitness (log ratio)” value is on record?
**A.** ≤ -4.2

**Q.** For A16C A17C A20U A30U A37C U55G C93G C103A A119G, which “polymerase ribozyme fitness (log ratio)” value is on record?
**A.** ≤ -4.2

**Q.** Which “polymerase ribozyme fitness (log ratio)” value does the source give for U15G A39U C72U A91U A147U A150C here?
**A.** ≤ -4.2

**Q.** With A16C C18G A47U G92A U101A as the variant, how does the “polymerase ribozyme fitness (log ratio)” value read?
**A.** ≤ -4.2

**Q.** Which “polymerase ribozyme fitness (log ratio)” value does the source give for U15G G34A C75A A150U here?
**A.** ≤ -4.2

**Q.** For A16G C18U A30U C35U U55A G71C C93U A97C C116A G141U, which “polymerase ribozyme fitness (log ratio)” value is on record?
**A.** ≤ -4.2

**Q.** With A16C A73U G88C C95G A98U as the variant, how does the “polymerase ribozyme fitness (log ratio)” value read?
**A.** ≤ -4.2

**Q.** For A16C U61A G67A C87U A107U, which “polymerase ribozyme fitness (log ratio)” value is on record?
**A.** ≤ -4.2

**Q.** For A16C G58C A60G G83U C116U, which “polymerase ribozyme fitness (log ratio)” value is on record?
**A.** -0.784

**Q.** Which “polymerase ribozyme fitness (log ratio)” value does the source give for A16G A17G U56G U61G G68A C72U C114G G143U here?
**A.** ≤ -4.2

**Q.** Which “polymerase ribozyme fitness (log ratio)” value does the source give for A16C U56A C103A G124U G143C here?
**A.** ≤ -4.2

**Q.** For A16G C54U, which “polymerase ribozyme fitness (log ratio)” value is on record?
**A.** -0.601

**Q.** With U15G A73U C93U A120G as the variant, how does the “polymerase ribozyme fitness (log ratio)” value read?
**A.** -2.43

**Q.** With A16G U55A G83A G117U as the variant, how does the “polymerase ribozyme fitness (log ratio)” value read?
**A.** -1.7

**Q.** With A16U A21G C85G C93A C116A A150U as the variant, how does the “polymerase ribozyme fitness (log ratio)” value read?
**A.** ≤ -4.2

**Q.** Which “polymerase ribozyme fitness (log ratio)” value does the source give for U15G C54U A60U C75G A113G here?
**A.** ≤ -4.2

**Q.** For A16C C36U G59C, which “polymerase ribozyme fitness (log ratio)” value is on record?
**A.** -2.53

**Q.** For U15G U31A, which “polymerase ribozyme fitness (log ratio)” value is on record?
**A.** 0.571

**Q.** For U15G C132A, which “polymerase ribozyme fitness (log ratio)” value is on record?
**A.** -2.26

**Q.** Which “polymerase ribozyme fitness (log ratio)” value does the source give for A16C A20U here?
**A.** -2.36

**Q.** For A16C A113U C118G, which “polymerase ribozyme fitness (log ratio)” value is on record?
**A.** -3.27

**Q.** With A16G C43U C79U C132U as the variant, how does the “polymerase ribozyme fitness (log ratio)” value read?
**A.** ≤ -4.2

**Q.** Which “polymerase ribozyme fitness (log ratio)” value does the source give for A16G A20U G46U A60G A138C here?
**A.** ≤ -4.2

**Q.** For A16G C38U G50C U55A C57U C85G A120G A137U G143C, which “polymerase ribozyme fitness (log ratio)” value is on record?
**A.** ≤ -4.2

**Q.** For U15G A22U U53A A121C A147C, which “polymerase ribozyme fitness (log ratio)” value is on record?
**A.** 0.0126

**Q.** With A16G A19U G48A C54A U101G C108A A137C A150C as the variant, how does the “polymerase ribozyme fitness (log ratio)” value read?
**A.** ≤ -4.2

**Q.** For A16U A120G, which “polymerase ribozyme fitness (log ratio)” value is on record?
**A.** -2.64

**Q.** For A16U A120U, which “polymerase ribozyme fitness (log ratio)” value is on record?
**A.** -2

**Q.** With U15G G94C A115C C116G as the variant, how does the “polymerase ribozyme fitness (log ratio)” value read?
**A.** -3.85

**Q.** With A16G A29U U45A C54G C87G C125G as the variant, how does the “polymerase ribozyme fitness (log ratio)” value read?
**A.** ≤ -4.2

**Q.** With A16C C36A G46C G68C C93U G112U A115C A122U G143U as the variant, how does the “polymerase ribozyme fitness (log ratio)” value read?
**A.** ≤ -4.2

**Q.** For A16U A106G U144A, which “polymerase ribozyme fitness (log ratio)” value is on record?
**A.** -2.13

**Q.** For A16G G42A A52G C95U C96A C99G, which “polymerase ribozyme fitness (log ratio)” value is on record?
**A.** ≤ -4.2

**Q.** Which “polymerase ribozyme fitness (log ratio)” value does the source give for U15G A24C C35A A107U A147U here?
**A.** ≤ -4.2

**Q.** For A16C G86U, which “polymerase ribozyme fitness (log ratio)” value is on record?
**A.** -2.65

**Q.** Which “polymerase ribozyme fitness (log ratio)” value does the source give for A16G G42C C54G G70A C87A C99U A113C G141U U151C here?
**A.** ≤ -4.2

**Q.** Which “polymerase ribozyme fitness (log ratio)” value does the source give for A16U A29G A30U U53A U55A G62C U77G C116U here?
**A.** ≤ -4.2

**Q.** For U15G A52U, which “polymerase ribozyme fitness (log ratio)” value is on record?
**A.** -1.59

**Q.** Which “polymerase ribozyme fitness (log ratio)” value does the source give for A16C G94A here?
**A.** -1.78

**Q.** With A16C C85U A106U G126A as the variant, how does the “polymerase ribozyme fitness (log ratio)” value read?
**A.** -3.28

**Q.** With U15G A22U U56A A66C G117A A138G U146C as the variant, how does the “polymerase ribozyme fitness (log ratio)” value read?
**A.** ≤ -4.2

**Q.** For A16G A22G C27A A49C C57U G59C C85U C118A C129U, which “polymerase ribozyme fitness (log ratio)” value is on record?
**A.** ≤ -4.2

**Q.** For U15G G46C C93A C95U, which “polymerase ribozyme fitness (log ratio)” value is on record?
**A.** ≤ -4.2

**Q.** For A16C G94U A107G C116A C132U A142G, which “polymerase ribozyme fitness (log ratio)” value is on record?
**A.** ≤ -4.2
